Source: publication PMC8092223

How the values were obtained:
[1] = target: His8-tagged PII protein, PII(WT) (Synechocystis sp. PCC 6803) (UniProt Q55247)
[2] = target: His8-tagged PII protein, PII(WT) (Synechocystis sp. PCC 6803) (UniProt Q55247); experiment: BLI; Octet K2; His8-tagged PII variant loaded (10 ug/ml) on Ni-NTA sensor tips, free sites blocked with 72 ug/ml PII(ΔT); analyte GST-PirA 125 to 12,000 nM (or tag-free PirA or GST alone); with ADP (0.1 to 2 mM; 2 mM for variants and controls); 30°C; 50 mM Tris-HCl pH 7.4, 150 mM KCl, 2 mM MgCl2, 0.02% lauryldimethylamine oxide, 0.2 mg/ml BSA; KD from concentration versus maximum response
[3] = target: PII(S49E), phosphomimetic variant, His8-tagged (Synechocystis sp. PCC 6803) (UniProt Q55247); experiment: as above

GST-tagged PirA (Ssr0692, PII-interacting regulator of arginine synthesis) (natural protein)
NAGK activity (AGPR-coupled assay; 6 ug NAGK, 2.4 ug PII, 0.1 mM arginine, 1 mM ATP, 1 mM ADP) against PirA from 0 to 30 ug [1]: 50% | Kd [2]: 2900 nM | Kd [3]: 2500 nM
